Series [1] addresses T1, RecD2 (His-tagged) (Bacillus subtilis, UniProt O34481 1-798).
T1 sequence: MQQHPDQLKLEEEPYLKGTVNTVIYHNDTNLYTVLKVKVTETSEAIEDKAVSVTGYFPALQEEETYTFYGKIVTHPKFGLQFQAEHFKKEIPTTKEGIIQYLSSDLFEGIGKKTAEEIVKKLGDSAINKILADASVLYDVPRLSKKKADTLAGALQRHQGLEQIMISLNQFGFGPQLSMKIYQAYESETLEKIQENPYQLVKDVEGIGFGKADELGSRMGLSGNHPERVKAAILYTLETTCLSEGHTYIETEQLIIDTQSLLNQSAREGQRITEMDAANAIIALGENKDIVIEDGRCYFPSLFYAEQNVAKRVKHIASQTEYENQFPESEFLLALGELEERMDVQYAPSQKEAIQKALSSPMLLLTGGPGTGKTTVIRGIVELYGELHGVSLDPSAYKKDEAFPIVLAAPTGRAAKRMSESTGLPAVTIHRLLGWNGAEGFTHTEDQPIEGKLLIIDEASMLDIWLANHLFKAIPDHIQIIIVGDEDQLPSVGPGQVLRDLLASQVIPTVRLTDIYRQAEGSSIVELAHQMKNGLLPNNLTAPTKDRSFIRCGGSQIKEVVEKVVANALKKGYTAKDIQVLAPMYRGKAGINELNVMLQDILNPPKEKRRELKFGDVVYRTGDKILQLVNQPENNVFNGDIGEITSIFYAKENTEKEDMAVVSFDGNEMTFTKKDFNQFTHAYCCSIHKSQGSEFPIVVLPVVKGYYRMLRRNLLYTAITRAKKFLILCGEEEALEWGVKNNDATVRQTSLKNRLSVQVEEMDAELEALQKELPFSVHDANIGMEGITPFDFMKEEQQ
The series can be described thus: EMSA. As to conditions: 2 mM MgCl2, 1 mM ATPgS, EMSA: 0.25 nM 32P-DNA, buffer B (composition not in material), 2 mM MgCl2 (or 10 mM), 15 min 37 C, then 0.05% glutaraldehyde 15 min 37 C, 8% PAGE ….

Series [2] concerns the target T1, RecD2 (His-tagged). Description: EMSA; 2 mM MgCl2, 1 mM ATPgS; EMSA: 0.25 nM 32P-DNA, buffer B (composition not in material), 1 mM ATPgS, 2 mM MgCl2 (or 10 mM), 15 min 37 C, then 0.05% glutaraldehyde 15 min 37 C, 8% PAGE; single-molecule: buffer A (composition not in material). As to conditions: protein: recombinant; tags: 6xHis (not removed); label: 32P. For orientation: A gel shift assay detects complexes by their altered migration in electrophoresis.

The target of series [3] is T1, RecD2 (His-tagged). Description: EMSA; 10 mM MgCl2, 1 mM ATPgS; EMSA: 0.25 nM 32P-DNA, buffer B (composition not in material), 1 mM ATPgS, 2 mM MgCl2 (or 10 mM), 15 min 37 C, then 0.05% glutaraldehyde 15 min 37 C, 8% PAGE; single-molecule: buffer A (composition not in material). Conditions: protein: recombinant; tags: 6xHis (not removed); label: 32P.
Substrate in series [4]: Nc1ncnc2c1ncn2[C@@H]1O[C@H](COP(=O)(O)OP(=O)(O)OP(=O)(O)O)[C@@H](O)[C@H]1O
The series can be described thus: coupled ATP/NADH spectrophotometric ATPase assay, Michaelis-Menten fit. Format: biochemical, Bacillus subtilis. As to conditions: ssDNA cofactor dT80 (3 μM nucleotides), 5 nM RecD2, 2 mM MgCl2, pH 7.5, 37 °C, turnover printed as Vmax per RecD2.

Here are results for seven molecules from article PMC12143592, “Bacterial RecD2 is a processive single-stranded DNA translocase with strand-switching capacity at DNA forks” (Nucleic Acids Research, 2025).

By Km is commonly meant the concentration of substrate that gives half-maximal velocity. One may read the kcat as the number of substrate molecules converted per active site and unit of time at saturation.

Molecule 3'-tailed duplex (30 nt tail) displayed a K half in series [1] of 14 nM. Same read-out and setting: with 5'-tailed duplex (30 nt tail) the figure was 16 nM.

B1: 60-nt random ssDNA (17-M-60) (ssDNA)
DNA: ACGGCCTAGATCGTGAACCTGCAGGTAAGGGGCTGCTCATCGTAGGTTAGCGTAAATTAG
As for B1, the entries for the “apparent K (half saturation)” value in series [2] and in series [3] were 13.5 ± 4.2 nM and 44.2 ± 14.1 nM, respectively.

B2: RecD2 (BsRecD2) (Bacillus subtilis subsp. subtilis str. 168) (protein)
chain: T1 sequence
As for B2, in series [4], the Km is 82 µM and the kcat is around 223 s⁻¹. In the case of CTAATTTACGCTAACCTACGATGAGCAGCC (ssDNA) [30-nt random ssDNA (22-M-30)], the “apparent K (half saturation)” value was 212 ± 17.7 nM in series [2] and 246 ± 20.2 nM in series [3].

Take TTTTTTTTTTTTTTTTTTTTTTTTTTTTTT (ssDNA) [poly(dT)30]: in series [2], the “apparent K (half saturation)” value was around 6 nM.

B3: 80-nt random ssDNA (17-M-80) (ssDNA)
DNA: ACGGCCTAGAACGGCCTAGAACGGCCTAGATCGTGAACCTGCAGGTAAGGGGCTGCTCATCGTAGGTTAGCGTAAATTAG
Turning to B3, the results for the “apparent K (half saturation)” value in series [2] and in series [3] were 11.1 ± 5.4 nM and 39.1 ± 15.4 nM, respectively.
